First the molecules themselves.
B1: EPB41L3 (parent)
chain: GSKFRYSGRTQAQTRRASALIDRP
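Note: lentivirally expressed fusions sorted by FACS into six bins by GFP to DsRed ratio, PSI derived from sequencing read proportions per bin multiplied by bin number.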

The data set covers variants of B1. Nature of the data set: protein stability index of a GFP-peptide fusion (GPS, HEK-293T) (PSI 1-6); higher = more stable. Particulars: c terminus: a fixed tail appended.
For GSKFRYSGRTQAQTRQASALIDRP [R16Q], the protein stability index stood at 3.31.

For GSKFRYSGRTQAQTRGASALIDRP [R16G], the protein stability index is 3.87.

GSKFRYSGRTQAQTRKASALIDRP [R16K]: the protein stability index is 2.83.

GSKFRYSGRTQAQTRFASALIDRP [R16F]: the protein stability index turned out to be 2.9.

GSKFRYSGRTQAQTRDASALIDRP [R16D]: the protein stability index amounted to 3.56.

GSKFRYSGRTQAQTRVASALIDRP [R16V]: the protein stability index came out at 2.34.

On to GSKFRYSGRTQAQTRIASALIDRP [R16I], for which the protein stability index stood at 2.72.

Regarding GSKFRYSGRTQAQTRAASALIDRP [R16A], the protein stability index is 2.63.

For GSKFRYSGRTQAQTRCASALIDRP [R16C], the protein stability index came out at 2.52.

On to GSKFRYSGRTQAQTRWASALIDRP [R16W], for which the protein stability index amounted to 2.41.

Consider GSKFRYSGRTQAQTRHASALIDRP [R16H], for which the protein stability index amounted to 3.32.

With GSKFRYSGRTQAQTREASALIDRP [R16E], the protein stability index came out at 3.34.

For GSKFRYSGRTQAQTRTASALIDRP [R16T], the protein stability index was found to be 3.4.

On to GSKFRYSGRTQAQTRPASALIDRP [R16P], for which the protein stability index came to 3.15.

As for GSKFRYSGRTQAQTRSASALIDRP [R16S], the protein stability index is 3.08.

For GSKFRYSGRTQAQTRLASALIDRP [R16L], the protein stability index was 3.11.

For the variant GSKFRYSGRTQAQTRNASALIDRP [R16N], the protein stability index came to 3.42.

For GSKFRYSGRTQAQTRMASALIDRP [R16M], the protein stability index is 2.67.

Consider GSKFRYSGRTQAQTRYASALIDRP [R16Y], for which the protein stability index is 2.78.

GSKFRYSGRTQAQNRRASALIDRP [T14N]: the protein stability index is 3.72.

Turning to GSKFRYSGRTQAQCRRASALIDRP [T14C], the protein stability index came out at 1.88.

As for GSKFRYSGRTQAQVRRASALIDRP [T14V], the protein stability index was found to be 3.19.

As to GSKFRYSGRTQAQKRRASALIDRP [T14K], the protein stability index is 3.44.

Regarding GSKFRYSGRTQAQMRRASALIDRP [T14M], the protein stability index turned out to be 2.29.

As for GSKFRYSGRTQAQSRRASALIDRP [T14S], the protein stability index came to 2.67.

For the variant GSKFRYSGRTQAQQRRASALIDRP [T14Q], the protein stability index turned out to be 2.81.

On to GSKFRYSGRTQAQLRRASALIDRP [T14L], for which the protein stability index stood at 2.7.

As to GSKFRYSGRTQAQHRRASALIDRP [T14H], the protein stability index came to 2.77.

As for GSKFRYSGRTQAQYRRASALIDRP [T14Y], the protein stability index stood at 2.73.

With GSKFRYSGRTQAQWRRASALIDRP [T14W], the protein stability index stood at 2.22.

In the case of GSKFRYSGRTQAQDRRASALIDRP [T14D], the protein stability index is 3.41.

Consider GSKFRYSGRTQAQERRASALIDRP [T14E], for which the protein stability index amounted to 3.21.

Consider GSKFRYSGRTQAQRRRASALIDRP [T14R], for which the protein stability index stood at 3.44.

Consider GSKFRYSGRTQAQIRRASALIDRP [T14I], for which the protein stability index is 2.69.

Turning to GSKFRYSGRTQAQGRRASALIDRP [T14G], the protein stability index was found to be 3.17.

As to GSKFRYSGRTQAQARRASALIDRP [T14A], the protein stability index is 3.25.

For GSKFRYSGRTQAQFRRASALIDRP [T14F], the protein stability index was 2.8.

Consider GSKFRYSGRTQAQPRRASALIDRP [T14P], for which the protein stability index was 2.62.

For GSKFRYSGRTQAQTKRASALIDRP [R15K], the protein stability index stood at 2.83.

As for GSKFRYSGRTQAQTPRASALIDRP [R15P], the protein stability index turned out to be 3.3.

Turning to GSKFRYSGRTQAQTTRASALIDRP [R15T], the protein stability index was 3.58.

With GSKFRYSGRTQAQTMRASALIDRP [R15M], the protein stability index was determined as 3.21.

For GSKFRYSGRTQAQTWRASALIDRP [R15W], the protein stability index came out at 2.45.

For the variant GSKFRYSGRTQAQTERASALIDRP [R15E], the protein stability index is 3.57.

Regarding GSKFRYSGRTQAQTYRASALIDRP [R15Y], the protein stability index is 2.54.

Consider GSKFRYSGRTQAQTGRASALIDRP [R15G], for which the protein stability index amounted to 2.81.

Consider GSKFRYSGRTQAQTIRASALIDRP [R15I], for which the protein stability index is 2.66.

As to GSKFRYSGRTQAQTVRASALIDRP [R15V], the protein stability index is 2.99.

Turning to GSKFRYSGRTQAQTDRASALIDRP [R15D], the protein stability index was determined as 3.2.

As for GSKFRYSGRTQAQTSRASALIDRP [R15S], the protein stability index was determined as 2.81.

In the case of GSKFRYSGRTQAQTCRASALIDRP [R15C], the protein stability index was 2.06.

For GSKFRYSGRTQAQTLRASALIDRP [R15L], the protein stability index came out at 2.64.

For the variant GSKFRYSGRTQAQTARASALIDRP [R15A], the protein stability index is 3.25.

Take GSKFRYSGRTQAQTQRASALIDRP [R15Q]: the protein stability index was determined as 2.9.

In the case of GSKFRYSGRTQAQTNRASALIDRP [R15N], the protein stability index was determined as 3.68.

For GSKFRYSGRTQAQTHRASALIDRP [R15H], the protein stability index stood at 2.97.

Take GSKFRYSGRTQAQTFRASALIDRP [R15F]: the protein stability index was found to be 2.44.

Consider GSKFRYSGRTQAQTRRASALNDRP [I21N], for which the protein stability index stood at 3.95.

With GSKFRYSGRTQAQTRRASALQDRP [I21Q], the protein stability index came out at 3.06.

For the variant GSKFRYSGRTQAQTRRASALKDRP [I21K], the protein stability index was 3.48.

Consider GSKFRYSGRTQAQTRRASALHDRP [I21H], for which the protein stability index amounted to 3.32.

For the variant GSKFRYSGRTQAQTRRASALLDRP [I21L], the protein stability index was found to be 3.17.

Take GSKFRYSGRTQAQTRRASALWDRP [I21W]: the protein stability index turned out to be 2.4.

As to GSKFRYSGRTQAQTRRASALVDRP [I21V], the protein stability index is 3.2.

Consider GSKFRYSGRTQAQTRRASALMDRP [I21M], for which the protein stability index was determined as 3.6.

Regarding GSKFRYSGRTQAQTRRASALSDRP [I21S], the protein stability index stood at 3.

Take GSKFRYSGRTQAQTRRASALADRP [I21A]: the protein stability index turned out to be 3.78.

Consider GSKFRYSGRTQAQTRRASALYDRP [I21Y], for which the protein stability index was found to be 2.73.

As for GSKFRYSGRTQAQTRRASALCDRP [I21C], the protein stability index is 2.64.

GSKFRYSGRTQAQTRRASALPDRP [I21P]: the protein stability index worked out at 2.71.

In the case of GSKFRYSGRTQAQTRRASALFDRP [I21F], the protein stability index is 2.97.

Regarding GSKFRYSGRTQAQTRRASALEDRP [I21E], the protein stability index was 3.4.

For the variant GSKFRYSGRTQAQTRRASALGDRP [I21G], the protein stability index amounted to 3.9.

As for GSKFRYSGRTQAQTRRASALRDRP [I21R], the protein stability index turned out to be 3.71.

On to GSKFRYSGRTQAQTRRASALTDRP [I21T], for which the protein stability index was 3.21.

Turning to GSKFRYSGRTQAQTRRASALDDRP [I21D], the protein stability index stood at 3.58.

For the variant GSKFRYSGRTQAQTRRASALIARP [D22A], the protein stability index turned out to be 2.63.

For the variant GSKFRYSGRTQAQTRRASALIIRP [D22I], the protein stability index came to 2.83.

In the case of GSKFRYSGRTQAQTRRASALIERP [D22E], the protein stability index was 3.72.

As to GSKFRYSGRTQAQTRRASALICRP [D22C], the protein stability index amounted to 2.99.

Turning to GSKFRYSGRTQAQTRRASALIFRP [D22F], the protein stability index stood at 3.4.

For the variant GSKFRYSGRTQAQTRRASALIHRP [D22H], the protein stability index was found to be 3.7.

Regarding GSKFRYSGRTQAQTRRASALIGRP [D22G], the protein stability index turned out to be 2.67.

Turning to GSKFRYSGRTQTQTRRASALIDRP [A12T], the protein stability index was 2.93.

On to GSKFRYSGRTQVQTRRASALIDRP [A12V], for which the protein stability index was found to be 1.93.

For the variant GSKFRYSGRTQPQTRRASALIDRP [A12P], the protein stability index was found to be 3.17.

Regarding GSKFRYSGRTQNQTRRASALIDRP [A12N], the protein stability index was found to be 3.08.

Take GSKFRYSGRTQMQTRRASALIDRP [A12M]: the protein stability index worked out at 2.73.

As for GSKFRYSGRTQRQTRRASALIDRP [A12R], the protein stability index was 3.42.

In the case of GSKFRYSGRTQSQTRRASALIDRP [A12S], the protein stability index was 3.41.

For GSKFRYSGRTQYQTRRASALIDRP [A12Y], the protein stability index came to 2.89.

GSKFRYSGRTQQQTRRASALIDRP [A12Q]: the protein stability index worked out at 3.06.

In the case of GSKFRYSGRTQWQTRRASALIDRP [A12W], the protein stability index was found to be 2.25.

Consider GSKFRYSGRTQAQTRRAEALIDRP [S18E], for which the protein stability index is 3.62.

The record behind these values is the supplement of paper PMC10567573.
